Patent publication US20250339531A1 (FRED HUTCHINSON CANCER CENTER, published 2025)

Legend:
[1] = biological target: T1, Immunoglobulin kappa variable 2-40 (Homo sapiens); assay: anti-FLAG co-IP LC-MS, exp 3, +Dox
T1 construct: also called IGKV2-40

[2] = biological target: T2, ATP-dependent RNA helicase DDX3X (Homo sapiens, UniProt O00571 2-662); assay: anti-FLAG co-IP LC-MS, exp 3, +Dox
[3] = biological target: T3, Nuclease-sensitive element-binding protein 1 (Fragment) (Homo sapiens, UniProt P67809 2-324); assay: anti-FLAG co-IP LC-MS, exp 3, +Dox
T3 construct: also called YBX1

[4] = biological target: T4, Heterogeneous nuclear ribonucleoprotein M (Homo sapiens, UniProt P52272 2-730); assay: anti-FLAG co-IP LC-MS, exp 3, +Dox
T4 construct: also called HNRNPM
T4 sequence (looked up): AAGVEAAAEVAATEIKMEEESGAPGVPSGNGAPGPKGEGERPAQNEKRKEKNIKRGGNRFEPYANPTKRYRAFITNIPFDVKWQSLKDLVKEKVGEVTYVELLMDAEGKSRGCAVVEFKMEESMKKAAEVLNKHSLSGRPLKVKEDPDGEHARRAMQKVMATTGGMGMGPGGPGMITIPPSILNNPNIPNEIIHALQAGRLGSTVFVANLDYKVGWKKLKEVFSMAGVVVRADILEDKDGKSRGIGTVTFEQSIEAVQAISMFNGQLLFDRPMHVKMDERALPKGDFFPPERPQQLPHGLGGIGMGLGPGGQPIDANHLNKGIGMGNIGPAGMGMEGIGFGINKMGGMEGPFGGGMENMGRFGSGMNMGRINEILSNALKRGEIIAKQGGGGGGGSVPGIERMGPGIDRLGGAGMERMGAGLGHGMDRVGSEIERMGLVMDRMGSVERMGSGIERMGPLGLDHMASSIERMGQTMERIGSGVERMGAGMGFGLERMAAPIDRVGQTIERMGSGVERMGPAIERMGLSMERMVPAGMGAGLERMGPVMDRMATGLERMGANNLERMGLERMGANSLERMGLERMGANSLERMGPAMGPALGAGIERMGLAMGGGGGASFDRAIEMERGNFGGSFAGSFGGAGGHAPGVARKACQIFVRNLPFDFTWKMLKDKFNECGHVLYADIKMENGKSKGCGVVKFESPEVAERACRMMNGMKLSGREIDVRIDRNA

[5] = biological target: T5, Heterogeneous nuclear ribonucleoprotein U (Homo sapiens, UniProt Q00839 2-825); assay: anti-FLAG co-IP LC-MS, exp 3, +Dox
T5 construct: also called HNRNPU; HNRPU

[6] = biological target: T6, Proteasome subunit alpha type (Homo sapiens); assay: anti-FLAG co-IP LC-MS, exp 3, +IFNg +Dox
T6 construct: also called PSMA6

[7] = biological target: T1, Immunoglobulin kappa variable 2-40; assay: anti-FLAG co-IP LC-MS, exp 3, +IFNg +Dox
[8] = biological target: T2, ATP-dependent RNA helicase DDX3X; assay: anti-FLAG co-IP LC-MS, exp 3, +IFNg +Dox
[9] = biological target: T7, DNA-dependent protein kinase catalytic subunit (Homo sapiens, UniProt P78527 1-4128); assay: anti-FLAG co-IP LC-MS, exp 3, +IFNg +Dox
T7 construct: also called PRKDC

[10] = biological target: T3, Nuclease-sensitive element-binding …; assay: anti-FLAG co-IP LC-MS, exp 3, +IFNg +Dox
[11] = biological target: T4, Heterogeneous nuclear ribonucleoprotein …; assay: anti-FLAG co-IP LC-MS, exp 3, +IFNg +Dox
[12] = biological target: T8, Nucleolin (Homo sapiens, UniProt P19338 2-710); assay: anti-FLAG co-IP LC-MS, exp 3, +IFNg +Dox
T8 construct: also called NCL

[13] = biological target: T9, Cyclin-dependent kinase 4 (Homo sapiens, UniProt P11802 2-303); assay: anti-FLAG co-IP LC-MS, exp 3, +IFNg +Dox
T9 construct: also called CDK4

[14] = biological target: T10, Signal transducer and activator of transcription 1-alpha/beta (Homo sapiens, UniProt P42224 2-750); assay: anti-FLAG co-IP LC-MS, exp 3, +IFNg +Dox
T10 construct: also called STAT1
T10 sequence (looked up): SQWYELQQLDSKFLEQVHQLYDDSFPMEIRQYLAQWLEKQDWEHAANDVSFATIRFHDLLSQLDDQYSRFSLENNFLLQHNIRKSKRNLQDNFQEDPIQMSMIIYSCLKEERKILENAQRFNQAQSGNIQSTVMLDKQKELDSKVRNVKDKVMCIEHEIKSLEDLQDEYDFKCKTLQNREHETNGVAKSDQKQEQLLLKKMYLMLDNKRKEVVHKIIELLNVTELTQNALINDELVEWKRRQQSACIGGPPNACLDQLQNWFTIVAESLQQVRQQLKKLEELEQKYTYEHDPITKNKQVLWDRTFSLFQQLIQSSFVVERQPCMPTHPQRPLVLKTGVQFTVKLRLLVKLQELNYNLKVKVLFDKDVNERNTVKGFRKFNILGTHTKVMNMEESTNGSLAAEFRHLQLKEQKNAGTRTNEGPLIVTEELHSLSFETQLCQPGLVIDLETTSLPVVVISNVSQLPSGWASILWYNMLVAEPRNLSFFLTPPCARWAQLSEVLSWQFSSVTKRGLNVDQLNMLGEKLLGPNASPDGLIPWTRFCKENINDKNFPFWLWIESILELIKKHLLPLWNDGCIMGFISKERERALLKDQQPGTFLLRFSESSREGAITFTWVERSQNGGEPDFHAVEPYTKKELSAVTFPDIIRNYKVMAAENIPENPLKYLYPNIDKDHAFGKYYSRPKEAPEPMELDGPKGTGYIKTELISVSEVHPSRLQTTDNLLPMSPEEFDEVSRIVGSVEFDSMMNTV

[15] = biological target: T5, Heterogeneous nuclear ribonucleoprotein …; assay: anti-FLAG co-IP LC-MS, exp 3, +IFNg +Dox
[16] = biological target: T11, Uncharacterized protein (Fragment) (Homo sapiens); assay: anti-FLAG co-IP LC-MS, exp 3, +IFNg +Dox
T11 construct: also called NA (Homology to TAP2)

[17] = biological target: T12, cDNA FLJ56329, highly similar to Myosin light polypeptide 6 (Homo sapiens); assay: anti-FLAG co-IP LC-MS, exp 3, +IFNg +Dox
T12 construct: also called MYL6

T5 sequence (Q00839 2-825 limits assumed): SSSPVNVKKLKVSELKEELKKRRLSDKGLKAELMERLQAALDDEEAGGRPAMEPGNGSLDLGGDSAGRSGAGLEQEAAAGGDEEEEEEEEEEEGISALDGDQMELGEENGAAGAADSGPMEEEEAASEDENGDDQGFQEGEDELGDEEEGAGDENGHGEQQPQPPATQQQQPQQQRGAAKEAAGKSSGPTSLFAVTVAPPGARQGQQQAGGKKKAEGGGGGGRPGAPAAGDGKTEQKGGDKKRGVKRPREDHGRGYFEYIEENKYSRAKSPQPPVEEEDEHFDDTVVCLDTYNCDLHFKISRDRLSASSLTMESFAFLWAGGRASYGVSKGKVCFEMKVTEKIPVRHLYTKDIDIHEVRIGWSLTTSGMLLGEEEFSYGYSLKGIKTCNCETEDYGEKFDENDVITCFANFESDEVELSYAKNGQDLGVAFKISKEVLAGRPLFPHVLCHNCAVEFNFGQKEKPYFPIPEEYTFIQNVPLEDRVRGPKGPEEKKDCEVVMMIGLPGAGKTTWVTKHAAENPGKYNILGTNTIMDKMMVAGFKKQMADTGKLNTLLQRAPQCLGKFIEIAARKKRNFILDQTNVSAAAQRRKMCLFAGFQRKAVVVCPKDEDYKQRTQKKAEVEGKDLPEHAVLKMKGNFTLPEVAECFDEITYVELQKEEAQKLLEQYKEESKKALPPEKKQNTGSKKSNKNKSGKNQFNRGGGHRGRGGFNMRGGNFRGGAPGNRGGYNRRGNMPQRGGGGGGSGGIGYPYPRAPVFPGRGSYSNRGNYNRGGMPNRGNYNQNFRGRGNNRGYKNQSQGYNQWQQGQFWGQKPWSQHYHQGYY
T3 sequence (P67809 2-324 limits assumed): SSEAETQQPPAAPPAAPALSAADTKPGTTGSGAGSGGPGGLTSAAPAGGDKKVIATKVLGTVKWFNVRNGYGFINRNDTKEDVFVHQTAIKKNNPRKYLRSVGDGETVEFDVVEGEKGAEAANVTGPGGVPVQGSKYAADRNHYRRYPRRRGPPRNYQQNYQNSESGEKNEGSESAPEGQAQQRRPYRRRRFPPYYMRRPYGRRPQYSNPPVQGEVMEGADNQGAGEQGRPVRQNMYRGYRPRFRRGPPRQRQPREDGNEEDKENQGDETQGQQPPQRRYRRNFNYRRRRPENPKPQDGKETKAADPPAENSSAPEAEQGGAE
T2 sequence (O00571 2-662 limits assumed): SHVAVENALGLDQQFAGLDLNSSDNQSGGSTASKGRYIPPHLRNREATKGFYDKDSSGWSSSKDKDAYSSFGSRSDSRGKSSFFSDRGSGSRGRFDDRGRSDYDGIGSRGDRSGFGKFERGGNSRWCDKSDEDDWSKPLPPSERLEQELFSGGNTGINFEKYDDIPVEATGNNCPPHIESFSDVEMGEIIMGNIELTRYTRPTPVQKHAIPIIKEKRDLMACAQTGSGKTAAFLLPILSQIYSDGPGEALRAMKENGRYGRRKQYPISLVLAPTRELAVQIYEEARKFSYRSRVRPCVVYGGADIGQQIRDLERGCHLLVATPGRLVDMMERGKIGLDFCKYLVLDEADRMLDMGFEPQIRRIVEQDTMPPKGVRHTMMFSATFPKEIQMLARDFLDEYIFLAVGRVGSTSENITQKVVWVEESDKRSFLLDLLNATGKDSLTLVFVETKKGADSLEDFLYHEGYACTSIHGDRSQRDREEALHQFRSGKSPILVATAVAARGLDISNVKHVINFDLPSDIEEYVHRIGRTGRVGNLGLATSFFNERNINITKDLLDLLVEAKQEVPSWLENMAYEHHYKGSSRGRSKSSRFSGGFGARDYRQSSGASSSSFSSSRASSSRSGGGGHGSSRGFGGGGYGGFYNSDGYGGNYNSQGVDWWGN
T1 sequence (A0A087WW87 20-121): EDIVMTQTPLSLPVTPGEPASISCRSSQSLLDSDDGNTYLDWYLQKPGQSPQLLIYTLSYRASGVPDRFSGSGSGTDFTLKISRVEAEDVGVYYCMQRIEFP
T9 sequence (P11802 2-303 limits assumed): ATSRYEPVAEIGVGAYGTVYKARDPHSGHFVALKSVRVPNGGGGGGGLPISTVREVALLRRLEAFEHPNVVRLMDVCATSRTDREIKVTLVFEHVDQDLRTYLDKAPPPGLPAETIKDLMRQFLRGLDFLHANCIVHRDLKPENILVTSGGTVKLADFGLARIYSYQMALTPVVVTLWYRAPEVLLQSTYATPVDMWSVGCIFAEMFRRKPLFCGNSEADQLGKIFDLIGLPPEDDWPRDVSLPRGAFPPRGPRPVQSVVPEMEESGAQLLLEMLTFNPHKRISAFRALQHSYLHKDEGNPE
T8 sequence (P19338 2-710 limits assumed): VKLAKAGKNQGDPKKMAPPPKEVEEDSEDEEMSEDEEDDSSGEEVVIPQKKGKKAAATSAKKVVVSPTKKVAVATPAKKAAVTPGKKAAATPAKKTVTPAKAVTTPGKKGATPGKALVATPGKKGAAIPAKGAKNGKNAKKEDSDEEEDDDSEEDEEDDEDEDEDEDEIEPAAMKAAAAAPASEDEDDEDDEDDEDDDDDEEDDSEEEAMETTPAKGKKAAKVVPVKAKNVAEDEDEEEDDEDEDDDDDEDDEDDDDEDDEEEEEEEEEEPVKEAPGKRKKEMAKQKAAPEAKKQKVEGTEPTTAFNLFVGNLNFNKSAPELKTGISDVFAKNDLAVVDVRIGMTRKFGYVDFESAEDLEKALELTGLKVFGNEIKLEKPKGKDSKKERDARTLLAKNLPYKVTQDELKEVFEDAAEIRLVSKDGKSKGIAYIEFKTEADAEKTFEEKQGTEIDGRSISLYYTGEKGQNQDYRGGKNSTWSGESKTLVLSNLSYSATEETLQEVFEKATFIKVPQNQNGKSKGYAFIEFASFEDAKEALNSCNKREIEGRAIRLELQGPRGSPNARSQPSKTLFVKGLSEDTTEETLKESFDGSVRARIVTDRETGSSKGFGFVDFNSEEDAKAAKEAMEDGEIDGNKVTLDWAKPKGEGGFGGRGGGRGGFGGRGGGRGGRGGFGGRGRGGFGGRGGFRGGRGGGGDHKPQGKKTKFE

B1: i3XFLAG-NLS-CTDaa154-424 (other)
chain: MDYKDHDGDYKDHDIDYKDDDDKPPKRMRREPKKKRKVGRAPAQAGGLCSAAPGGGHPAPSWVAFAHTGAWGTGLPAPHVPCAPGALPQGAFVSQAARAAPALQPSQAAPAEGISQPAPARGDFAYAAPAPPDGALSHPQAPRWPPHPGKSREDRDPQRDGLPGPCAVAQPGPAQAGPQGQGVLAPPTSQGSPWWGWGRGPQVAGAAWEPQAGAAPPPQPAPPDASASARQGQMQGIPAPSQALQEPAPWSALPCGLLLDELLASPEFLQQAQPLLETEAPGELEASEEAASLEAPLSEEEYRALLEEL
notes: Doxycycline-induced in MB135 cells for co-IP; also called longCTD; iDUX4-CTD
[1]
  PSMs: 2 PSMs
[2]
  PSMs: 29 PSMs
[3]
  PSMs: 5 PSMs
[4]
  PSMs: 9 PSMs
[5]
  PSMs: 4 PSMs
[6]
  PSMs: 1 PSMs
[7]
  PSMs: 2 PSMs
[8]
  PSMs: 37 PSMs
[9]
  PSMs: 18 PSMs
[10]
  PSMs: 7 PSMs
[11]
  PSMs: 21 PSMs
[12]
  PSMs: 4 PSMs
[13]
  PSMs: 1 PSMs
[14]
  PSMs: 3 PSMs
[15]
  PSMs: 9 PSMs
[16]
  PSMs: 1 PSMs
[17]
  PSMs: 4 PSMs
